The source of these data is patent US20210292422A1 (published 2021).

Where two headings read alike, the source gives them in different places.

As a reminder, the Kd is the constant that tells how readily two partners part at equilibrium. A higher Kd goes with weaker binding.

What all share (assay): BLI (Octet)
On the technique in general: Biolayer interferometry detects binding as a change in optical thickness at a sensor tip.

In one test the target is Frizzled 1 (Fzd1) (UniProt Q9UP38 111-230).
Test [1] deals with T1, LRP6E1E2 (UniProt O75581 20-630).
T1 chain: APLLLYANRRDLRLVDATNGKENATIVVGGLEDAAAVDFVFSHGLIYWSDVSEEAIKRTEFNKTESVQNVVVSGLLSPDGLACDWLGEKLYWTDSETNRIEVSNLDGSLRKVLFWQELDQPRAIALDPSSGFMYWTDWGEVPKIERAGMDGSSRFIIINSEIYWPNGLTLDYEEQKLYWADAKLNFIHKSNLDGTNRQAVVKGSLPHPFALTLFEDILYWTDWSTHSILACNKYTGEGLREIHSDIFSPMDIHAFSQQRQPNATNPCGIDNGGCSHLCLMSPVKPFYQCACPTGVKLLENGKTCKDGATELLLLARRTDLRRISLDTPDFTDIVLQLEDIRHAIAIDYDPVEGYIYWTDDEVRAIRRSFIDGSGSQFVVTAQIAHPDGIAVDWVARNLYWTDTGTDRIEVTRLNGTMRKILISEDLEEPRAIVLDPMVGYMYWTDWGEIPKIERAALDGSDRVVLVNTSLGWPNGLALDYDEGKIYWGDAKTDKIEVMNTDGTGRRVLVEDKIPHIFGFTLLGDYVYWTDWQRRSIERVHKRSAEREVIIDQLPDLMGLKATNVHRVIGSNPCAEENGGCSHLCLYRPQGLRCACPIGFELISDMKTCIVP

The target of test [2] is T1, LRP6E1E2.

B1: L1:15:F1:Fc (bispecific antibody)
chain: DVKLVESGGGLVKLGGSLRLSCAASGFSFSTSYMSWVRQTPEKRLELVAAINLNGGSTYYSDTVKGRFTISRDNAKNTLYLQMSSLKSEDTAFYYCASELAGYGTPFAYWGQGTLVTVSAGSAASGSSGGSSSGADIVLTQSPATLSVTPGDSVSLSCKASQSISYNLHWYQQKSHESPRLLIKYTSQSISGIPSRFSGSGSGTDFTLTINNVETEDFGMYFCQQSNSWPLTFGAGTKLEVKGSGSGGSGSGGSSGGEVQLVESGGGLVQPGGSLRLSCAASGFTFSHYTLSWVRQAPGKGLEWVSVISGDGSYTYYADSVKGRFTISSDNSKNTLYLQMNSLRAEDTAVYYCARNFIKYVFANWGQGTLVTVSSGGGGSGGGGSGGGGSDIELTQPPSVSVAPGQTARISCSGDNIGSFYVHWYQQKPGQAPVLVIYDKSNRPSGIPERFSGSNSGNTATLTISGTQAEDEADYYCQSYANTLSLVFGGGTKLTVLGSGSGDKTHTCPPCPAPEAAGGPSVFLFPPKPKDTLMISRTPEVTCVVVDVSHEDPEVKFNWYVDGVEVHNAKTKPREEQYNSTYRVVSVLTVLHQDWLNGKEYKCKVSNKALGAPIEKTISKAKGQPREPQVYTLPPSREEMTKNQVSLTCLVKGFYPSDIAVEWESNGQPENNYKTTPPVLDSDGSFFLYSKLTVDKSRWQQGNVFSCSVMHEALHNHYTQKSLSLSPGK
B1: the Kd in the test with Frizzled 1 (Fzd1) is 0.8 nM; with LRP6E1E2 [1], 5.6 nM.

B2: L1:10:F1:Fc (bispecific antibody)
chain: DVKLVESGGGLVKLGGSLRLSCAASGFSFSTSYMSWVRQTPEKRLELVAAINLNGGSTYYSDTVKGRFTISRDNAKNTLYLQMSSLKSEDTAFYYCASELAGYGTPFAYWGQGTLVTVSAGSAASGSSGGSSSGADIVLTQSPATLSVTPGDSVSLSCKASQSISYNLHWYQQKSHESPRLLIKYTSQSISGIPSRFSGSGSGTDFTLTINNVETEDFGMYFCQQSNSWPLTFGAGTKLEVKGSGSGGSGSGEVQLVESGGGLVQPGGSLRLSCAASGFTFSHYTLSWVRQAPGKGLEWVSVISGDGSYTYYADSVKGRFTISSDNSKNTLYLQMNSLRAEDTAVYYCARNFIKYVFANWGQGTLVTVSSGGGGSGGGGSGGGGSDIELTQPPSVSVAPGQTARISCSGDNIGSFYVHWYQQKPGQAPVLVIYDKSNRPSGIPERFSGSNSGNTATLTISGTQAEDEADYYCQSYANTLSLVFGGGTKLTVLGSGSGDKTHTCPPCPAPEAAGGPSVFLFPPKPKDTLMISRTPEVTCVVVDVSHEDPEVKFNWYVDGVEVHNAKTKPREEQYNSTYRVVSVLTVLHQDWLNGKEYKCKVSNKALGAPIEKTISKAKGQPREPQVYTLPPSREEMTKNQVSLTCLVKGFYPSDIAVEWESNGQPENNYKTTPPVLDSDGSFFLYSKLTVDKSRWQQGNVFSCSVMHEALHNHYTQKSLSLSPGK
Consider B2, for which the Kd is 0.7 nM with Frizzled 1 (Fzd1) and 5.9 nM with LRP6E1E2 [1].

B3: αGFP:5:L1:Fc (bispecific antibody)
chain: QVQLVESGGGLVQPGGSLRLSCAASGFTFSRYGMHWVRQAPGKGLEWVSGISSIGSNTYYADSVKGRFTISRDNSKNTLYLQMNSLRAEDTAVYYCARWYKTYIDVWGQGTLVTVSSGGGGSGGGGSGGGGSDIELTQPPSVSVAPGQTARISCSGDNLGKKYVYWYQQKPGQAPVLVIYGDDERPSGIPERFSGSNSGNTATLTISGTQAEDEADYYCASYDSSHILIVFGGGTKLTVLGSGSGDVKLVESGGGLVKLGGSLRLSCAASGFSFSTSYMSWVRQTPEKRLELVAAINLNGGSTYYSDTVKGRFTISRDNAKNTLYLQMSSLKSEDTAFYYCASELAGYGTPFAYWGQGTLVTVSAGSAASGSSGGSSSGADIVLTQSPATLSVTPGDSVSLSCKASQSISYNLHWYQQKSHESPRLLIKYTSQSISGIPSRFSGSGSGTDFTLTINNVETEDFGMYFCQQSNSWPLTFGAGTKLEVKGSGSGDKTHTCPPCPAPEAAGGPSVFLFPPKPKDTLMISRTPEVTCVVVDVSHEDPEVKFNWYVDGVEVHNAKTKPREEQYNSTYRVVSVLTVLHQDWLNGKEYKCKVSNKALGAPIEKTISKAKGQPREPQVYTLPPSREEMTKNQVSLTCLVKGFYPSDIAVEWESNGQPENNYKTTPPVLDSDGSFFLYSKLTVDKSRWQQGNVFSCSVMHEALHNHYTQKSLSLSPGK
Turning to B3, in the test with LRP6E1E2 [2], the Kd stood at 98 nM.

B4: F1:10:L1:Fc (bispecific antibody)
chain: EVQLVESGGGLVQPGGSLRLSCAASGFTFSHYTLSWVRQAPGKGLEWVSVISGDGSYTYYADSVKGRFTISSDNSKNTLYLQMNSLRAEDTAVYYCARNFIKYVFANWGQGTLVTVSSGGGGSGGGGSGGGGSDIELTQPPSVSVAPGQTARISCSGDNIGSFYVHWYQQKPGQAPVLVIYDKSNRPSGIPERFSGSNSGNTATLTISGTQAEDEADYYCQSYANTLSLVFGGGTKLTVLGSGSGGSGSGDVKLVESGGGLVKLGGSLRLSCAASGFSFSTSYMSWVRQTPEKRLELVAAINLNGGSTYYSDTVKGRFTISRDNAKNTLYLQMSSLKSEDTAFYYCASELAGYGTPFAYWGQGTLVTVSAGSAASGSSGGSSSGADIVLTQSPATLSVTPGDSVSLSCKASQSISYNLHWYQQKSHESPRLLIKYTSQSISGIPSRFSGSGSGTDFTLTINNVETEDFGMYFCQQSNSWPLTFGAGTKLEVKGSGSGDKTHTCPPCPAPEAAGGPSVFLFPPKPKDTLMISRTPEVTCVVVDVSHEDPEVKFNWYVDGVEVHNAKTKPREEQYNSTYRVVSVLTVLHQDWLNGKEYKCKVSNKALGAPIEKTISKAKGQPREPQVYTLPPSREEMTKNQVSLTCLVKGFYPSDIAVEWESNGQPENNYKTTPPVLDSDGSFFLYSKLTVDKSRWQQGNVFSCSVMHEALHNHYTQKSLSLSPGK
As for B4, the Kd with Frizzled 1 (Fzd1) stood at 0.4 nM; in the test with LRP6E1E2 [1], 5.4 nM.

B5: F1:15:L1:Fc (bispecific antibody)
chain: EVQLVESGGGLVQPGGSLRLSCAASGFTFSHYTLSWVRQAPGKGLEWVSVISGDGSYTYYADSVKGRFTISSDNSKNTLYLQMNSLRAEDTAVYYCARNFIKYVFANWGQGTLVTVSSGGGGSGGGGSGGGGSDIELTQPPSVSVAPGQTARISCSGDNIGSFYVHWYQQKPGQAPVLVIYDKSNRPSGIPERFSGSNSGNTATLTISGTQAEDEADYYCQSYANTLSLVFGGGTKLTVLGSGSGGSGSGGSSGGDVKLVESGGGLVKLGGSLRLSCAASGFSFSTSYMSWVRQTPEKRLELVAAINLNGGSTYYSDTVKGRFTISRDNAKNTLYLQMSSLKSEDTAFYYCASELAGYGTPFAYWGQGTLVTVSAGSAASGSSGGSSSGADIVLTQSPATLSVTPGDSVSLSCKASQSISYNLHWYQQKSHESPRLLIKYTSQSISGIPSRFSGSGSGTDFTLTINNVETEDFGMYFCQQSNSWPLTFGAGTKLEVKGSGSGDKTHTCPPCPAPEAAGGPSVFLFPPKPKDTLMISRTPEVTCVVVDVSHEDPEVKFNWYVDGVEVHNAKTKPREEQYNSTYRVVSVLTVLHQDWLNGKEYKCKVSNKALGAPIEKTISKAKGQPREPQVYTLPPSREEMTKNQVSLTCLVKGFYPSDIAVEWESNGQPENNYKTTPPVLDSDGSFFLYSKLTVDKSRWQQGNVFSCSVMHEALHNHYTQKSLSLSPGK
B5: the Kd with Frizzled 1 (Fzd1) is 0.4 nM; with LRP6E1E2 [1] it was 5.5 nM.

B6: F1:5:L1:Fc (bispecific antibody)
chain: EVQLVESGGGLVQPGGSLRLSCAASGFTFSHYTLSWVRQAPGKGLEWVSVISGDGSYTYYADSVKGRFTISSDNSKNTLYLQMNSLRAEDTAVYYCARNFIKYVFANWGQGTLVTVSSGGGGSGGGGSGGGGSDIELTQPPSVSVAPGQTARISCSGDNIGSFYVHWYQQKPGQAPVLVIYDKSNRPSGIPERFSGSNSGNTATLTISGTQAEDEADYYCQSYANTLSLVFGGGTKLTVLGSGSGDVKLVESGGGLVKLGGSLRLSCAASGFSFSTSYMSWVRQTPEKRLELVAAINLNGGSTYYSDTVKGRFTISRDNAKNTLYLQMSSLKSEDTAFYYCASELAGYGTPFAYWGQGTLVTVSAGSAASGSSGGSSSGADIVLTQSPATLSVTPGDSVSLSCKASQSISYNLHWYQQKSHESPRLLIKYTSQSISGIPSRFSGSGSGTDFTLTINNVETEDFGMYFCQQSNSWPLTFGAGTKLEVKGSGSGDKTHTCPPCPAPEAAGGPSVFLFPPKPKDTLMISRTPEVTCVVVDVSHEDPEVKFNWYVDGVEVHNAKTKPREEQYNSTYRVVSVLTVLHQDWLNGKEYKCKVSNKALGAPIEKTISKAKGQPREPQVYTLPPSREEMTKNQVSLTCLVKGFYPSDIAVEWESNGQPENNYKTTPPVLDSDGSFFLYSKLTVDKSRWQQGNVFSCSVMHEALHNHYTQKSLSLSPGK
Regarding B6, the Kd in the test with Frizzled 1 (Fzd1) worked out at 0.3 nM; with LRP6E1E2 [1], 5.1 nM.

B7: L1:5:F1:Fc (bispecific antibody)
chain: DVKLVESGGGLVKLGGSLRLSCAASGFSFSTSYMSWVRQTPEKRLELVAAINLNGGSTYYSDTVKGRFTISRDNAKNTLYLQMSSLKSEDTAFYYCASELAGYGTPFAYWGQGTLVTVSAGSAASGSSGGSSSGADIVLTQSPATLSVTPGDSVSLSCKASQSISYNLHWYQQKSHESPRLLIKYTSQSISGIPSRFSGSGSGTDFTLTINNVETEDFGMYFCQQSNSWPLTFGAGTKLEVKGSGSGEVQLVESGGGLVQPGGSLRLSCAASGFTFSHYTLSWVRQAPGKGLEWVSVISGDGSYTYYADSVKGRFTISSDNSKNTLYLQMNSLRAEDTAVYYCARNFIKYVFANWGQGTLVTVSSGGGGSGGGGSGGGGSDIELTQPPSVSVAPGQTARISCSGDNIGSFYVHWYQQKPGQAPVLVIYDKSNRPSGIPERFSGSNSGNTATLTISGTQAEDEADYYCQSYANTLSLVFGGGTKLTVLGSGSGDKTHTCPPCPAPEAAGGPSVFLFPPKPKDTLMISRTPEVTCVVVDVSHEDPEVKFNWYVDGVEVHNAKTKPREEQYNSTYRVVSVLTVLHQDWLNGKEYKCKVSNKALGAPIEKTISKAKGQPREPQVYTLPPSREEMTKNQVSLTCLVKGFYPSDIAVEWESNGQPENNYKTTPPVLDSDGSFFLYSKLTVDKSRWQQGNVFSCSVMHEALHNHYTQKSLSLSPGK
Turning to B7, the Kd in the test with Frizzled 1 (Fzd1) stood at 0.6 nM; in the test with LRP6E1E2 [1], 4.9 nM.
